Experimental data reported in US20160297884A1 (Pfizer, published 2016).

T1: Human BCMA (human, UniProt Q02223 1-54, limits assumed)
T1 construct: also called huBCMA; B-cell maturation antigen
T1 sequence (looked up): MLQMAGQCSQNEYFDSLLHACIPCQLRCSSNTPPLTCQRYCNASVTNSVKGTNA

B1: COMBO_Rd4_6nM_C11 (antibody, V domains shown)
VH: EVQLLESGGGLVQPGGSLRLSCAASGFTFSSYPMSWVRQAPGKGLEWVSAIGGSGGSLGYADSVKGRFTISRDNSKNTLYLQMNSLRAEDTAVYYCARYWPMDSWGQGTLVTVSS
VL: EIVLTQSPGTLSLSPGERATLSCRASQSVSPLYLAWYQQKPGQAPRLLMYDASIRATGIPDRFSGSGSGTDFTLTISRLEPEDFAVYYCQQYKAWPLTFGQGTKVEIK
notes: IgG
B2: COMBO_Rd4_0.6nM_C29 (antibody, V domains shown)
VH: EVQLLESGGGLVQPGGSLRLSCAASGFTFSSYPMSWVRQAPGKGLEWVSAIGGSGGSLPYADSVKGRFTISRDNSKNTLYLQMNSLRAEDTAVYYCARYWPMDIWGQGTLVTVSS
VL: EIVLTQSPGTLSLSPGERATLSCRASQSVSSSYLAWYQQKPGQAPRLLMYDASIRATGIPDRFSGSGSGTDFTLTISRLEPEDFAVYYCQQYQSWPLTFGQGTKVEIK
notes: IgG
B3: COMBO_Rd4_6nM_C02 (antibody, V domains shown)
VH: EVQLLESGGGLVQPGGSLRLSCAASGFTFSSYAMNWVRQAPGKGLEWVSAISDSGGFVYYADSVKGRFTISRDNSKNTLYLQMNSLRAEDTAVYYCARYWPMDSWGQGTLVTVSS
VL: EIVLTQSPGTLSLSPGERATLSCRASQSVSSSYLAWYQQKPGQAPRLLMYDASIRATGIPDRFSGSGSGTDFTLTISRLEPEDFAVYYCQQYEFWPLTFGQGTKVEIK
notes: IgG
B4: P5C1_VHVL (antibody, V domains shown)
VH: EVQLLESGGGLVQPGGSLRLSCAASGFTFSSYPMSWVRQAPGKGLEWVSAIGGSGGSTYYADSVKGRFTISRDNSKNTLYLQMNSLRAEDTAVYYCARYWPMDSWGQGTLVTVSS
VL: EIVLTQSPGTLSLSPGERATLSCRASQSVSSTYLAWYQQKPGQAPRLLIYDASSRAPGIPDRFSGSGSGTDFTLTISRLEPEDFAVYYCQQYSTSPLTFGQGTKVEIK
notes: IgG; also called PC1
B5: COMBO_Rd4_6nM_C08 (antibody, V domains shown)
VH: EVQLLESGGGLVQPGGSLRLSCAASGFTFSSYPMSWVRQAPGKGLEWVSAIGGSGTWTYYADSVKGRFTISRDNSKNTLYLQMNSLRAEDTAVYYCARYWPMDSWGQGTLVTVSS
VL: EIVLTQSPGTLSLSPGERATLSCRASQSVSSSYLAWYQQKPGQAPRLLMYDASIRATGIPDRFSGSGSGTDFTLTISRLEPEDFAVYYCQQYQKWPLTFGQGTKVEIK
notes: IgG
B6: COMBO_Rd4_0.6nM_C23 (antibody, V domains shown)
VH: EVQLLESGGGLVQPGGSLRLSCAASGFTFSSYPMSWVRQAPGKGLEWVSALFGSGGSTYYADSVKGRFTISRDNSKNTLYLQMNSLRAEDTAVYYCARYWPMDSWGQGTLVTVSS
VL: EIVLTQSPGTLSLSPGERATLSCRPRQSVSSSYLAWYQQKPGQAPRLLMYDASIRATGIPDRFSGSGSGTDFTLTISRLEPEDFAVYYCQQYQDWPLTFGQGTKVEIK
notes: IgG
B7: COMBO_Rd4_6nM_C25 (antibody, V domains shown)
VH: EVQLLESGGGLVQPGGSLRLSCAASGFTFSSYPMSWVRQAPGKGLEWVSAIGGSGGSTYYADSVKGRFTISRDNSKNTLYLQMNSLRAEDTAVYYCARYWPMDPWGQGTLVTVSS
VL: EIVLTQSPGTLSLSPGERATLSCRASQSVSSPYLAWYQQKPGQAPRLLMYDASIRATGIPDRFSGSGSGTDFTLTISRLEPEDFAVYYCQQYQSWPLTFGQGTKVEIK
notes: IgG
B8: P5A2_VHVL (antibody, V domains shown)
VH: EVQLLESGGGLVQPGGSLRLSCAASGFTFSSYAMNWVRQAPGKGLEWVSAISDSGGSTYYADSVKGRFTISRDNSKNTLYLQMNSLRAEDTAVYYCARYWPMDIWGQGTLVTVSS
VL: EIVLTQSPGTLSLSPGERATLSCRASQSVSSSYLAWYQQKPGQAPRLLMYDASIRATGIPDRFSGSGSGTDFTLTISRLEPEDFAVYYCQQYGSWPLTFGQGTKVEIK
notes: IgG
B9: COMBO_Rd4_6nM_C07 (antibody, V domains shown)
VH: EVQLLESGGGLVQPGGSLRLSCAASGFTFSSYPMSWVRQAPGKGLEWVSAIGGSGGSLPYADSVKGRFTISRDNSKNTLYLQMNSLRAEDTAVYYCARYWPMADWGQGTLVTVSS
VL: EIVLTQSPGTLSLSPGERATLSCRASQPISSSYLAWYQQKPGQAPRLLMYDASIRATGIPDRFSGSGSGTDFTLTISRLEPEDFAVYYCQQYQGWPLTFGQGTKVEIK
notes: IgG

Key:
Cynomolgus monkey BCMA = target: T2, Cynomolgus monkey BCMA (cynomolgus monkey); assay: SPR, IgG immobilised, cyno BCMA analyte
T2 construct: Soluble analyte in SPR; also called cyBCMA; Cyno BCMA
Procedure, shortened: (§1)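 Kinetic titration: huBCMA/cyBCMA 0.08–50 nM (5-fold steps), 2 min association per step, 2 h dissociation after top dose; HBS-T+ + 1 mg/mL BSA, 25 or 37° C; double-referenced, fit 1:1 Langmuir with mass transport.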

Human BCMA = target: T1, Human BCMA; assay: SPR, IgG immobilised, human BCMA analyte
Procedure, shortened: as §1

| Binder | Kd (Cynomolgus monkey BCMA) [nM] | koff (Cynomolgus monkey BCMA) [s⁻¹] | kon (Cynomolgus monkey BCMA) [M⁻¹ s⁻¹] | Kd (Human BCMA) [nM] | koff (Human BCMA) [s⁻¹] | kon (Human BCMA) [M⁻¹ s⁻¹] |
| --- | --- | --- | --- | --- | --- | --- |
| B1 | 0.156 | 0.000412 | 2.64e+06 | 0.018 | 0.000124 | 6.74e+06 |
| B2 | 0.084 | 0.000336 | 4e+06 | 0.019 | 0.000277 | 1.47e+07 |
| B3 | 1.71 | 0.00136 | 795000 | 0.422 | 0.000443 | 1.05e+06 |
| B4 | 15.2 | 0.0538 | 3.53e+06 | 5.99 | 0.0692 | 1.16e+07 |
| B5 | 0.14 | 0.000428 | 3.06e+06 | 0.019 | 0.000169 | 8.99e+06 |
| B6 | 0.189 | 0.000531 | 2.81e+06 | 0.028 | 0.00021 | 7.39e+06 |
| B7 | 0.079 | 0.000226 | 2.85e+06 | 0.014 | 0.000113 | 7.98e+06 |
| B8 | 10.2 | 0.0164 | 1.61e+06 | 5.57 | 0.0387 | 6.96e+06 |
| B9 | 0.237 | 0.000934 | 3.94e+06 | 0.035 | 0.000371 | 1.05e+07 |
